This note sets out measurements from the supplement of paper PMC5998384.

In data set [1] the test system is HeLa Kyoto. As to the kind of experiment: solubility in G1/S (NP-40 vs SDS abundance) (log2 ratio); higher = more soluble. Particulars: cell cycle stage: G1/S.
For data set [2], the system named is HeLa Kyoto. The data set can be described thus: melting temperature (median over replicates), in situ; higher = more thermally stable.
Data set [3] relates to HeLa Kyoto. As to the kind of experiment: solubility change mitosis vs G1/S (difference of NP-40 vs SDS log2 ratios) (log2 ratio difference); higher = more soluble in mitosis.
For data set [4], the system named is HeLa Kyoto. The data set can be described thus: thermal stability score vs G1/S (z-score of summed log2 fold changes over temperatures); higher = more thermally stable than in G1/S.
Where [5] appears, read: cell cycle stage: early G1 (4.5 h after nocodazole release).
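For melting temperature (median over replicates), in situ in this document: HeLa Kyoto cells synchronized by double thymidine or nocodazole block, proteins quantified by TMT10plex mass spectrometry, three independent biological replicates.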
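For solubility change mitosis vs G1/S (difference of NP-40 vs SDS log2 ratios) in this document: synchronized HeLa Kyoto cells (double thymidine block for G1/S, nocodazole release for mitosis), protein amounts in NP-40 versus SDS lysates quantified by mass spectrometry, three biological replicates.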
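For solubility in G1/S (NP-40 vs SDS abundance) in this document: HeLa Kyoto cells arrested at G1/S by double thymidine block, proteins quantified by TMT10plex mass spectrometry in mild NP-40 versus SDS extracts, three biological replicates.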
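For thermal stability score vs G1/S (z-score of summed log2 fold changes over temperatures) in this document: synchronized HeLa Kyoto cells, proteins quantified by TMT10plex mass spectrometry, three biological replicates, mitosis taken 0.5 h after nocodazole release, G1/S directly after double thymidine block.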

For “MAVAPRLFGGLCFRFRDQNPEVAVEGRLPISHSCVGCRRERTAMATVAANPAAAAAAVAAAAAVTEDREPQHEELPGLDSQWRQIENGESGRERPLRAGESWFLVEKHWYKQWEAYVQGGDQDSSTFPGCINNATLFQDEINWRLKEGLVEGEDYVLLPAAAWHYLVSWYGLEHGQPPIERKVIELPNIQKVEVYPVELLLVRHNDLGKSHTVQFSHTDSIGLVLRTARERFLVEPQEDTRLWAKNSEGSLDRLYDTHITVLDAALETGQLIIMETRKKDGTWPSAQLHVMNNNMSEEDEDFKGQPGICGLTNLGNTCFMNSALQCLSNVPQLTEYFLNNCYLEELNFRNPLGMKGEIAEAYADLVKQAWSGHHRSIVPHVFKNKVGHFASQFLGYQQHDSQELLSFLLDGLHEDLNRVKKKEYVELCDAAGRPDQEVAQEAWQNHKRRNDSVIVDTFHGLFKSTLVCPDCGNVSVTFDPFCYLSVPLPISHKRVLEVFFIPMDPRRKPEQHRLVVPKKGKISDLCVALSKHTGISPERMMVADVFSHRFYKLYQLEEPLSSILDRDDIFVYEVSGRIEAIEGSREDIVVPVYLRERTPARDYNNSYYGLMLFGHPLLVSVPRDRFTWEGLYNVLMYRLSRYVTKPNSDDEDDGDEKEDDEEDKDDVPGPSTGGSLRDPEPEQAGPSSGVTNRCPFLLDNCLGTSQWPPRRRRKQLFTLQTVNSNGTSDRTTSPEEVHAQPYIAIDWEPEMKKRYYDEVEAEGYVKHDCVGYVMKKAPVRLQECIELFTTVETLEKENPWYCPSCKQHQLATKKLDLWMLPEILIIHLKRFSYTKFSREKLDTLVEFPIRDLDFSEFVIQPQNESNPELYKYDLIAVSNHYGGMRDGHYTTFACNKDSGQWHYFDDNSVSPVNENQIESKAAYVLFYQRQDVARRLLSPAGSSGAPASPACSSPPSSEFMDVN [USP11]”, the “solubility in G1/S (log2)” value in the data set on HeLa Kyoto [1] was -0.0353. For the same sequence, the melting temperature in the data set on HeLa Kyoto [2] (cell cycle stage: G1/S) amounted to 47.3 °C; in the data set on HeLa Kyoto [2] (cell cycle stage: mitosis), 48.1 °C. In the data set with HeLa Kyoto [3], the “solubility change mitosis (log2)” value was -0.0102. Further, the thermal stability score amounted to 2.48 with HeLa Kyoto [4] (setting [5]) and 4.39 with HeLa Kyoto [4] (cell cycle stage: mitosis).

As to “MSENLDNEGPKPMESCGQESSSALSCPTVSVPPAAPAALEEVEKEGAGAATGPGPQPGLYSYIRDDLFTSEIFKLELQNVPRHASFSDVRRFLGRFGLQPHKTKLFGQPPCAFVTFRSAAERDKALRVLHGALWKGRPLSVRLARPKADPMARRRRQEGESEPPVTRVADVVTPLWTVPYAEQLERKQLECEQVLQKLAKEIGSTNRALLPWLLEQRHKHNKACCPLEGVRPSPQQTEYRNKCEFLVGVGVDGEDNTVGCRLGKYKGGTCAVAAPFDTVHIPEATKQVVKAFQEFIRSTPYSAYDPETYTGHWKQLTVRTSRRHQAMAIAYFHPQKLSPEELAELKTSLAQHFTAGPGRASGVTCLYFVEEGQRKTPSQEGLPLEHVAGDRCIHEDLLGLTFRISPHAFFQVNTPAAEVLYTVIQDWAQLDAGSMVLDVCCGTGTIGLALARKVKRVIGVELCPEAVEDARVNAQDNELSNVEFHCGRAEDLVPTLVSRLASQHLVAILDPPRAGLHSKVILAIRRAKNLRRLLYVSCNPRAAMGNFVDLCRAPSNRVKGIPFRPVKAVAVDLFPQTPHCEMLILFERVEHPNGTGVLGPHSPPAQPTPGPPDNTLQETGTFPSS [TRMT2A]”, the “solubility in G1/S (log2)” value with HeLa Kyoto [1] is -0.136. In addition, the melting temperature was found to be 48.9 °C in the data set on HeLa Kyoto [2] (cell cycle stage: G1/S) and 49.8 °C with HeLa Kyoto [2] (cell cycle stage: mitosis). Further, the “solubility change mitosis (log2)” value in the data set on HeLa Kyoto [3] came to 0.169. Besides, the results for the thermal stability score with HeLa Kyoto [4] (setting [5]) and with HeLa Kyoto [4] (cell cycle stage: mitosis) were 2.34 and 3.51, respectively.

Consider “MADESETAVKPPAPPLPQMMEGNGNGHEHCSDCENEEDNSYNRGGLSPANDTGAKKKKKKQKKKKEKGSETDSAQDQPVKMNSLPAERIQEIQKAIELFSVGQGPAKTMEEASKRSYQFWDTQPVPKLGEVVNTHGPVEPDKDNIRQEPYTLPQGFTWDALDLGDRGVLKELYTLLNENYVEDDDNMFRFDYSPEFLLWALRPPGWLPQWHCGVRVVSSRKLVGFISAIPANIHIYDTEKKMVEINFLCVHKKLRSKRVAPVLIREITRRVHLEGIFQAVYTAGVVLPKPVGTCRYWHRSLNPRKLIEVKFSHLSRNMTMQRTMKLYRLPETPKTAGLRPMETKDIPVVHQLLTRYLKQFHLTPVMSQEEVEHWFYPQENIIDTFVVENANGEVTDFLSFYTLPSTIMNHPTHKSLKAAYSFYNVHTQTPLLDLMSDALVLAKMKGFDVFNALDLMENKTFLEKLKFGIGDGNLQYYLYNWKCPSMGAEKVGLVLQ [NMT1]”, for which, in the data set on HeLa Kyoto [1], the “solubility in G1/S (log2)” value is -0.131. Also, the melting temperature was determined as 53.9 °C in the data set with HeLa Kyoto [2] (cell cycle stage: G1/S) and 53.5 °C with HeLa Kyoto [2] (cell cycle stage: mitosis). Also, in the data set with HeLa Kyoto [3], the “solubility change mitosis (log2)” value amounted to 0.1. Besides, the thermal stability score was -0.333 in the data set with HeLa Kyoto [4] (setting [5]) and -0.823 in the data set with HeLa Kyoto [4] (cell cycle stage: mitosis).

“MALKQEMAKSLLKTASLSGRTKLLHQTGLSLYSTSHGFYEEEVKKTLQQFPGGSIDLQKEDNGIGILTLNNPSRMNAFSGVMMLQLLEKVIELENWTEGKGLIVRGAKNTFSSGSDLNAVKSLGTPEDGMAVCMFMQNTLTRFMRLPLISVALVQGWALGGGAEFTTACDFRLMTPESKIRFVHKEMGIIPSWGGTTRLVEIIGSRQALKVLSGALKLDSKNALNIGMVEEVLQSSDETKSLEEAQEWLKQFIQGPPEVIRALKKSVCSGRELYLEEALQNERDLLGTVWGGPANLEAIAKKGKFNK [ECHDC1]”: in the data set on HeLa Kyoto [1], the “solubility in G1/S (log2)” value was determined as 0.284. The figures for the melting temperature with HeLa Kyoto [2] (cell cycle stage: G1/S) and in the data set with HeLa Kyoto [2] (cell cycle stage: mitosis) were 56.5 °C and 58.1 °C, respectively. Further, the “solubility change mitosis (log2)” value with HeLa Kyoto [3] was -0.0468. Moreover, the thermal stability score in the data set on HeLa Kyoto [4] (setting [5]) is -1.01; in the data set on HeLa Kyoto [4] (cell cycle stage: mitosis), -1.18.

In the case of “MAAVDIRDNLLGISWVDSSWIPILNSGSVLDYFSERSNPFYDRTCNNEVVKMQRLTLEHLNQMVGIEYILLHAQEPILFIIRKQQRQSPAQVIPLADYYIIAGVIYQAPDLGSVINSRVLTAVHGIQSAFDEAMSYCRYHPSKGYWWHFKDHEEQDKVRPKAKRKEEPSSIFQRQRVDALLLDLRQKFPPKFVQLKPGEKPVPVDQTKKEAEPIPETVKPEEKETTKNVQQTVSAKGPPEKRMRLQ [MED6]”, the “solubility in G1/S (log2)” value in the data set with HeLa Kyoto [1] is 0.404. For the same sequence, the melting temperature was 47.9 °C with HeLa Kyoto [2] (cell cycle stage: G1/S) and 50 °C with HeLa Kyoto [2] (cell cycle stage: mitosis). Further, the “solubility change mitosis (log2)” value in the data set with HeLa Kyoto [3] turned out to be 0.222. Moreover, the thermal stability score is -0.569 in the data set on HeLa Kyoto [4] (setting [5]) and -0.431 with HeLa Kyoto [4] (cell cycle stage: mitosis).
